The record followed here is US20190352359A1 (IMMATICS BIOTECHNOLOGIES, published 2019).

Some results are limits rather than exact numbers.

In the experiment the target is T1, HLA-A*24.
T1 construct: Monomers captured on streptavidin plates; also called peptide-receptive MHC molecules; MHC complexes
As to the kind of experiment: UV peptide-exchange ELISA (anti-b2m); yield grade ++++ = >75%. The source says:
Candidate peptides for T cell based therapies according to the present invention were further tested for their MHC binding capacity (affinity). The individual peptide-MHC complexes were produced by UV-ligand exchange, where a UV-sensitive peptide is cleaved upon UV-irradiation, and exchanged with the peptide of interest as analyzed. Only peptide candidates that can effectively bind and stabilize the peptide-receptive MHC molecules prevent dissociation of the MHC complexes. To determine the yield of the exchange reaction, an ELISA was performed based on the detection of the light chain (p2m) of stabilized MHC complexes. The assay was performed as generally described in Rodenko et al. (Rodenko et al., 2006)
96 well MAXISorp plates (NUNC) were coated over night with 2 ug/ml streptavidin in PBS at room temperature, washed 4× and blocked for 1 h at 37° C. in 2% BSA containing blocking buffer. Refolded HLA-A*02:01/MLA-001 monomers served as standards, covering the range of 15-500 ng/ml. Peptide-MHC monomers of the UV-exchange reaction were diluted 100-fold in blocking buffer. Samples were incubated for 1 h at 37° C., washed four times, incubated with 2 ug/ml HRP conjugated anti-β2m for 1h at 37° C., washed again and detected with TMB solution that is stopped with […]. Absorption was measured at 450 nm. Candidate peptides that show a high exchange yield (preferably higher than 50%, most preferred higher than 75%) are generally preferred for a generation and production of antibodies or fragments thereof, and/or T cell receptors or fragments thereof, as they show sufficient avidity to the MHC molecules and prevent dissociation of the MHC complexes.
The molecule EVYQKIILKF (also called EVYQKIILKF) [PASD-001] showed a peptide exchange yield of over 75%. The result for KMGRIVDYF (also called KMGRIVDYF) [GABRP-003] reads over 75%; that for KLPTEWNVL (also called KLPTEWNVL) [AKAP13-005], over 75%.

Molecule VYSDLHAFY (also called VYSDLHAFY) [MANEAL-004] registered a peptide exchange yield of over 75%. In the case of IYTDITYSF (also called IYTDITYSF) [CHRNA6-002], the peptide exchange yield was over 75%. The result for VYAVISNIL (also called VYAVISNIL) [TNR-003] reads over 75%; that for IFMENAFEL (also called IFMENAFEL) [APOB-079], over 75%; that for IYLVGGYSW (also called IYLVGGYSW) [KLHL14-007], over 75%.

As for IFMGAVPTL (also called IFMGAVPTL) [LPAR3-001], the peptide exchange yield is over 75%. As for KFLTHDVLTELF (also called KFLTHDVLTELF) [TRPM8-009], the peptide exchange yield is over 75%. RYENVSILF (also called RYENVSILF) [ADCY8-001] gave a peptide exchange yield of over 75%. The result for AYVTEFVSL (also called AYVTEFVSL) [SCN3A-001] reads over 75%; that for EYQQYHPSL (also called EYQQYHPSL) [CLEC4C-001], over 75%; that for RYILEPFFI (also called RYILEPFFI) [SLC7A11-007], over 75%.

As for AFISVPLLI (also called AFISVPLLI) [TAS2R38-003], the peptide exchange yield was over 75%. Molecule MYGIVIRTI (also called MYGIVIRTI) [NPSR-001] had a peptide exchange yield of over 75%.

Regarding EYIDEFQSL (also called EYIDEFQSL) [RTL-003], the peptide exchange yield was over 75%. With RYLEEHTEF (also called RYLEEHTEF) [MROH2A-003], the peptide exchange yield was over 75%.

IYMTTGVLL (also called IYMTTGVLL) [TDRD9-002] yielded a peptide exchange yield of over 75%. For IYLLLPPVI (also called IYLLLPPVI) [OR51E2-004] the value was over 75%. The result for SYPKELMKF (also called SYPKELMKF) [MROH2A-004] reads over 75%; that for VYNNNSSRF (also called VYNNNSSRF) [MYO10-003], over 75%; that for VYDYIPLLL (also called VYDYIPLLL) [MROH2A-005], over 75%. In turn, LYHNWRHAF (also called LYHNWRHAF) [PDE11-002] gave a peptide exchange yield of over 75%.

Molecule KYVGEVFNI (also called KYVGEVFNI) [DMXL1-001] registered a peptide exchange yield of over 75%. The result for AAFISVPLLI (also called AAFISVPLLI) [TAS2R38-002] reads over 75%. The result for NYSPVTGKF (also called NYSPVTGKF) [OTOL-001] reads over 75%; that for VYLASVAAF (also called VYLASVAAF) [SLC45A3-006], over 75%; that for LYITKVTTI (also called LYITKVTTI) [FSTL4-002], over 75%. For KYNRQSMTL (also called KYNRQSMTL) [APOB-080] the value was over 75%. VYCSLDKSQF (also called VYCSLDKSQF) [RTL-004] yielded a peptide exchange yield of over 75%. For SFISPRYSWLF (also called SFISPRYSWLF) [SPNS3-005] the value was over 75%; for VHMKDFFYF (also called VHMKDFFYF) [DYRK4-001], over 75%. Regarding FWFDSREISF (also called FWFDSREISF) [OR51E2-002], the peptide exchange yield is over 75%.

As to RYADLLIYTY (also called RYADLLIYTY) [MYO3B-005], the peptide exchange yield is over 75%.

QYGFNYNKF (also called QYGFNYNKF) [PNLD-002] had a peptide exchange yield of over 75%. The result for FYIRRLPMF (also called FYIRRLPMF) [CHRNA6-001] reads over 75%. For RYQSVIYPF (also called RYQSVIYPF) [AGTR2-002] the value was over 75%. The result for QYIPTFHVY (also called QYIPTFHVY) [SLC44A5-003] reads over 75%. Molecule IQNAILHLF (also called IQNAILHLF) [OR51B5-001] yielded a peptide exchange yield of over 75%. For RFLDRGWGF (also called RFLDRGWGF) [ADAMTS12-005] the value was over 75%. The result for HWSHITHLF (also called HWSHITHLF) [DPY19L1-003] reads over 75%; that for GYFGTASLF (also called GYFGTASLF) [SLC16A14-001], over 75%; that for TYIDFVPYI (also called TYIDFVPYI) [TEX15-001], over 75%.

Turning to VYKWTEEKF (also called VYKWTEEKF) [TSPE-001], the peptide exchange yield was over 75%.

In the case of YYAADQWVF (also called YYAADQWVF) [CCR4-004], the peptide exchange yield was over 75%. TYETVMTFF (also called TYETVMTFF) [BTBD16-003] gave a peptide exchange yield of over 75%. RYAHTLVTSVLF (also called RYAHTLVTSVLF) [ITIH6-003] displayed a peptide exchange yield of over 75%. As to VYTVGHNLI (also called VYTVGHNLI) [KLB-003], the peptide exchange yield was over 75%. Take NYMDTDNLMF (also called NYMDTDNLMF) [LOC1001246-002]: the peptide exchange yield was over 75%. Consider AYFVAMHLF (also called AYFVAMHLF) [TENM4-007], for which the peptide exchange yield is over 75%. For VYLTWLPGL (also called VYLTWLPGL) [IFNLR-001] the value was over 75%; for KFLGSKCSF (also called KFLGSKCSF) [HAS3-003], over 75%. Take PEYSLPVLTF (also called PEYSLPVLTF) [PTP-040]: the peptide exchange yield was over 75%. The molecule NFYLFPTTF (also called NFYLFPTTF) [PNLD-001] showed a peptide exchange yield of over 75%. The result for IYANVTEMLL (also called IYANVTEMLL) [CYP27C-001] reads over 75%. The result for DYIQMIPEL (also called DYIQMIPEL) [RTL-002] reads over 75%. The result for YFLPGPHYF (also called YFLPGPHYF) [SOX30-001] reads over 75%; that for FYQPDLKYLSF (also called FYQPDLKYLSF) [NLRP4-003], over 75%. Consider FYPEVELNF (also called FYPEVELNF) [MMP1-009], for which the peptide exchange yield is over 75%. KWKPSPLLF (also called KWKPSPLLF) [GPR126-002] came in with a peptide exchange yield of over 75%.
